Laboratory results from patent US20190185532A1 (UNIVERSITY OF BIRMINGHAM, published 2019).

What was measured:
Assay in all cases: flow cytometry on transfected HEK293T cells, streptavidin-PE
[1] = molecular target: T1, thrombomodulin (human, C-terminal GFP tag, expressed in HEK293T) (human, UniProt P07204 19-575)
T1 construct: whole, on cells; On cells in flow cytometry; as non-reduced HEK293T lysate in far western blots; also called THBD; THBD wt; not shown: C-terminal green fluorescent protein (GFP) tag from vector pEGFP-N1
T1 sequence (P07204 19-575): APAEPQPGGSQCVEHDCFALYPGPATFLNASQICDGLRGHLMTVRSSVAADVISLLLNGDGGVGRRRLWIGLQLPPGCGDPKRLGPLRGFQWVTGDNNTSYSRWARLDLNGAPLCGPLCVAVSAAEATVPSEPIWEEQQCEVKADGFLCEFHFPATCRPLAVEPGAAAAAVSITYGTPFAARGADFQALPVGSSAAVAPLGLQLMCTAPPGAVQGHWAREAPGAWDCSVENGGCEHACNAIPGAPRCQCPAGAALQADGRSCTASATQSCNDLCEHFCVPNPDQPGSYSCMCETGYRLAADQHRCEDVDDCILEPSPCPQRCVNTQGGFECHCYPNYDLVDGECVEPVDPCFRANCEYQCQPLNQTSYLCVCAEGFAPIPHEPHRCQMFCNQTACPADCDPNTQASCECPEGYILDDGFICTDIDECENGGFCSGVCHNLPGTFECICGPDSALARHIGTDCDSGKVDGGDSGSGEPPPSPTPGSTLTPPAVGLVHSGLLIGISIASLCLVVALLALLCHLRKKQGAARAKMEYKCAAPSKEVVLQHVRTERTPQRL
Source text: (§1) The minimal CLEC14A binding fragment is highlighted in black. (B,C) HEK293T were transfected with truncation mutants. Lysates were far western blotted under reduced conditions with CLEC14A extracellular domain fused to an Fc tag (CLEC14A-ECD-Fc) and western blotted by use of His tag antibodies. (B) The smallest binding fragment was identified as MMRN2⁴⁸⁷⁻⁸²⁰, MMRN2^FL fails to bind CLEC14A-ECD-Fc. (C) The smallest MMRN2 fragment binding CLEC14A is MMRN2⁵³⁰⁻⁶²⁴. (D) MMRN2⁴⁹⁵⁻⁶⁷⁴ and MMRN2⁴⁹⁵⁻⁶⁰³ bind to streptavidin under reducing conditions after biotinylation. (E) Flow cytometry histograms of HEK293T transfected with GFP tagged CTLD group 14 family members and stained with biotinylated MMRN2⁴⁹⁵⁻⁶⁷⁴ (grey line), confirming binding to CLEC14A and CD93 but not thrombomodulin. Streptavidin-PE was used as a control for background binding (grey shaded).
(§2) The human MMRN2⁴⁹⁵⁻⁶⁷⁴ fragment along with the non-CLEC14A binding fragment MMRN2⁴⁹⁵⁻⁶⁰³ was expressed in E. coil with a His tag for purification and a BirA tag for specific biotinylation (17). Biotinylated proteins could bind to streptavidin in western blots (FIG. 2D) and MMRN2⁴⁹⁵⁻⁶⁷⁴ could bind to cell surface expressed CLEC14A and CD93 but not thrombomodulin detected by flow cytometry. This confirmed the CLEC14A and CD93 interactions likely occur in the same region of MMRN2 (FIG. 2E).
(§3) HUVEC or transfected HEK293T cells were detached from tissue culture plates using cell dissociation buffer or scraped and 5×10⁵ cells were stained with 20 ug/mL of antibody of interest or 20 μg/mL of recombinant protein. In blocking experiments, hCLEC14A-ECD-Fc was incubated with 2× molar excess of antibody or recombinant protein on ice for 1 hour. Flow cytometry buffer (PBS with 0.2% (w/v) BSA and 0.02% (w/v) sodium azide) was used for all wash and incubation steps. Samples were analysed on a FACSCalibur machine (BD Biosciences). […] Isotype control staining or human Fc alone was used as background fluorescence and this was subtracted from the geometric mean fluorescence intensity of each sample.

[2] = molecular target: T2, CLEC14A (human, wild type, C-terminal GFP tag, expressed in HEK293T) (human, UniProt Q86T13 22-490)
T2 construct: On cells in flow cytometry; as non-reduced HEK293T lysate in far western blots; also called CLEC14A wt; cell surface expressed CLEC14A; not shown: C-terminal green fluorescent protein (GFP) tag from vector pEGFP-N1
T2 sequence: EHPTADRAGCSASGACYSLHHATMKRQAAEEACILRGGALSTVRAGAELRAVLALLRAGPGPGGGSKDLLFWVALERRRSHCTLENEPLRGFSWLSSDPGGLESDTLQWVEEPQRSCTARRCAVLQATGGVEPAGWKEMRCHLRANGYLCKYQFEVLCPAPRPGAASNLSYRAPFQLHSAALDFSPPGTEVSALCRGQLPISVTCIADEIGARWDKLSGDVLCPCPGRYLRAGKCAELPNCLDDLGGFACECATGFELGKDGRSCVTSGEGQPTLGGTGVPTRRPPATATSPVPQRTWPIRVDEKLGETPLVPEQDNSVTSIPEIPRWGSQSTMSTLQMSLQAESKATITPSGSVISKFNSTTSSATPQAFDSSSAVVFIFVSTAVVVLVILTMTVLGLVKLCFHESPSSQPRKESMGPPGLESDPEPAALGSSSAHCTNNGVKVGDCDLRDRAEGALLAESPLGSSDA
Source text: as §1, §2, §3

[3] = molecular target: T3, CD93 (human, wild type, C-terminal GFP tag, expressed in HEK293T) (human, UniProt Q9NPY3 22-652)
T3 construct: On cells in flow cytometry; as non-reduced HEK293T lysate in far western blots; also called CD93 wild type (wt); cell surface expressed CD93; not shown: C-terminal green fluorescent protein (GFP) tag from vector pEGFP-N1
T3 sequence: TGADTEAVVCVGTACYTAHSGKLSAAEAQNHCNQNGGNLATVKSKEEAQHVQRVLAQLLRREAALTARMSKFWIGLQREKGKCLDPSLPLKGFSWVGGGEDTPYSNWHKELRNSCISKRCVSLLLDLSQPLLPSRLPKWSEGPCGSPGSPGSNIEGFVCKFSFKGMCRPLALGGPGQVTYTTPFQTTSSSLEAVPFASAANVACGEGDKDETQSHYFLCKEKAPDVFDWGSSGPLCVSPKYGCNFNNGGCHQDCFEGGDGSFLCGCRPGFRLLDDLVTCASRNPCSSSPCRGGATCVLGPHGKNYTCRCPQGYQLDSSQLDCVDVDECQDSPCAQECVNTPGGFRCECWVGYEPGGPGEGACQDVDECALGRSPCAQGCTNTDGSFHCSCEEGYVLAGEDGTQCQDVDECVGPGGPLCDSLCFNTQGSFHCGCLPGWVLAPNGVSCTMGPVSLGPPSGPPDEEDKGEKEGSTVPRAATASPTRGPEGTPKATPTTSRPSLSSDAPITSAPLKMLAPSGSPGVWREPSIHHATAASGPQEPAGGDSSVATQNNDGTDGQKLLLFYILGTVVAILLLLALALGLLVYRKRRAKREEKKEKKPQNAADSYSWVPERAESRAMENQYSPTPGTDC
Source text: as §1, §2, §3

- binding result [1]: no binding (tested: 20 µg/mL)
- binding result [2]: binds
- binding result [3]: binds
B1: biotinylated MMRN2^495-674 (human, expressed in E. coli with a His tag and a BirA tag) (ligand)
chain: QKLYLDLDVIREGQRDATRALEETQVSLDERRQLDGSSLQALQNAVDAVSLAVDAHKAEGERARAATSRLRSQVQALDDEVGALKAAAAEARHEVRQLHSAFAALLEDALRHEAVLAALFGEEVLEEMSEQTPGPLPLSYEQIRVALQDAASGLQEQALGWDELAARVTALEQASEPPRP
modifications: biotin on the BirA tag
notes: Used for staining of transfected HEK293T cells in flow cytometry, detected with streptavidin-PE; not shown: BirA tag and His tag (vector pET23a)
